One block for each binder: values may come before it.
Experiments:
human PD-L1 = molecular target: T1, human PD-L1 (human, UniProt Q9NZQ7 19-290); experiment: flow cytometry on CHO-K1.hPD-L1 cells, anti-FLAG detection
T1 construct: whole, on cells; also called hPD-L1; CHO-K1.hPD-L1
Procedure: CHO-K1.hPD-L1 cells were resuspended in Stain Buffer (PBS, 2% FBS, 0.05% sodium azide) and 1E5 cells/well were transferred to a 96-well V-bottom plate and centrifuged. Cells were suspended in 100 μL/well serial diluted VHH or anti-PD-L1 antibody (atezolizumab) in Stain Buffer and incubated for 30 minutes at 4° C. VHH binding was detected by resuspending the samples subsequently in 100 μL/well mouse a-FLAG antibody (Sigma: F1804) and detected with PE-labeled goat anti-mouse IgG (Jackson ImmunoResearch: 115-116-071) as detection antibody and 5 nM TOPRO3 (Molecular Probes: T3605) as dead dye. Between each step, the cells were collected via centrifugation for 5 minutes at 200×g and washed three times with 100 μL/well Stain Buffer.

human PD-1 = molecular target: T2, human PD-1 (human, UniProt Q15116 25-288); experiment: flow cytometry on CHO-K1.hPD-1 cells, anti-FLAG detection
T2 construct: whole, on cells; also called hPD-1; CHO-K1.hPD-1
T2 sequence (Q15116 25-288): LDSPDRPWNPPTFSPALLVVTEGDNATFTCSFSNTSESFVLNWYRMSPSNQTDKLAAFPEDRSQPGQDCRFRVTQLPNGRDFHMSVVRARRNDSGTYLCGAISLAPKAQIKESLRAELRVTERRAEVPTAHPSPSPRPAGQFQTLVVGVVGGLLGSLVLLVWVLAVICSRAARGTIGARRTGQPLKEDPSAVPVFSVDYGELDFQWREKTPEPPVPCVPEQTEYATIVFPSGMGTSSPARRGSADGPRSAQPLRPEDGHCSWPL

T1 sequence (Q9NZQ7 19-290): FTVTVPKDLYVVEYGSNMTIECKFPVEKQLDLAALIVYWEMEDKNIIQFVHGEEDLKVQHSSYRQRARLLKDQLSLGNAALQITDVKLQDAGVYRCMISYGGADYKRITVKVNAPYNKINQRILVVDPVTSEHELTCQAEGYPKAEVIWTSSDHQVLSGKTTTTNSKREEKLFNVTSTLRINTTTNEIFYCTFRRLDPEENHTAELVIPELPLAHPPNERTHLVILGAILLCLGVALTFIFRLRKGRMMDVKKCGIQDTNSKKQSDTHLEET

binding result (human PD-L1): binds
B1: α-PD-L1 VHH (VHH)
VHH: EVQLVESGGGLVQAGGSLSVSCAPSGRTFSNYAMGWFRQAPGKEREFVARISGGGGYTAYADSVKGRFTIARDNAKNTVYLQMNSLKPEDTAVYYCAAGSIDSRQPYDSTRRYDYWGQGTLVTVSS
notes: also called anti-PD-L1 VHH

binding result (human PD-1): binds
B2: α-PD-1 VHH (VHH)
VHH: EVQLVESGGGLVQAGDSLRLSCVASGRTFSSYHMGWFRQAPGKEREFVAAIPRSGSNIGYSAFVKDRGTISRDNAKNTVYLQINNLAPDDTAVYYCAAKSAAGYYSGVVFTADYDYTYWGQGTLVTVSS
notes: also called anti-PD-1 VHH

binding result (human PD-L1): binds
B3: α-PD-L1 VHH 3 (VHH)
VHH: EVQLVESGGGLVQPGGSLRLSCAASGRTLSNHAMHWFRQAPGKEREFVSAITWSDGETYYEDSVKGRFTISRDNAKDTAYLEMQSLKPEDTAVYYCAAKMGGPTSIPGLVEYWGQGTLVTVSS

binding result (human PD-L1): binds
B4: α-PD-L1 VHH 2 (VHH)
VHH: EVQLVESGGGLKQAGGSLRLSCTASARASTYIAMAWFRRTPGKAREFVAAITWSGGHTTYADSMKGRFTISRDNAKNTVYLHLNALQPEDAGVYYCAANQRNTVGPSEGAYPYWGQGTLVTVSS

Reference: US20250034258A1 (Merck Sharp & Dohme, published 2025)
